According to patent US20260209301A1, “Galanin-2 Receptor Agonists” (LIFEARC, priority 2022, published 2026):
Non-standard residues stand in square brackets, D forms with d. Residues, ends and D or L forms follow the SMILES beside them. No end group written: not given here. *: point of attachment. Fmoc = O=C(OCC1c2ccccc2-c2ccccc21)*; Cha = N[C@@H](CC1CCCCC1)C(=O)O; AMC = Cc1cc(=O)oc2cc(N*)ccc12

How the values were obtained:
mouse GalR2 = molecular target: T1, mouse GalR2 (Mus musculus, UniProt O88854); assay: Calcium assay at orthologue receptor; assay type: cell-based
T1 sequence (O88854 1-371): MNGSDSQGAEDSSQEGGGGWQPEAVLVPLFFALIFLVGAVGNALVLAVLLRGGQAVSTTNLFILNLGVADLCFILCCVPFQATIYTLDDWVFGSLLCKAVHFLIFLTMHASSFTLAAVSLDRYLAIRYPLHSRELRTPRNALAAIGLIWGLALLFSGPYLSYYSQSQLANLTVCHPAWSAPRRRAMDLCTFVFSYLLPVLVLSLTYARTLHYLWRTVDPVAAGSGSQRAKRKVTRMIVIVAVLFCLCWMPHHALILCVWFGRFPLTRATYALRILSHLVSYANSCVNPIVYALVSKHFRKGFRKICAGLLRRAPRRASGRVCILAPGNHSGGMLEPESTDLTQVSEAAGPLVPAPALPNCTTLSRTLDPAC
Text: (§1) These species were chosen as they represent potential downstream in vivo models to be used. Within native galanin amino acid residues 1-15 are conserved across species, we would therefore expect the Gal FC fusions comprising amino acids 2 to 13 to retain GalR2 activity in these species. Calcium imaging was used to define receptor activity.

cynomolgus GalR2 = assay: Calcium assay at orthologue receptor; assay type: cell-based, Macaca fascicularis; conditions: Table 8; Calcium assays; mean +/− standard deviation
Text: as §1

GalR1 [1] = molecular target: T2, GalR1 (Homo sapiens, UniProt P47211); assay: cAMP HTRF assay, CHO GalR1 cells; assay type: cell-based; set-up: expressed in transfected cells; host or cells: CHO (Flp-In, pcDNA5/FRT); conditions: for Emax: read-out: GalR1 cAMP IA (%); for GalR1 activity (cAMP assay), linker variants: Table 7, highest concentration tested 10 μM
T2 sequence (P47211 1-349): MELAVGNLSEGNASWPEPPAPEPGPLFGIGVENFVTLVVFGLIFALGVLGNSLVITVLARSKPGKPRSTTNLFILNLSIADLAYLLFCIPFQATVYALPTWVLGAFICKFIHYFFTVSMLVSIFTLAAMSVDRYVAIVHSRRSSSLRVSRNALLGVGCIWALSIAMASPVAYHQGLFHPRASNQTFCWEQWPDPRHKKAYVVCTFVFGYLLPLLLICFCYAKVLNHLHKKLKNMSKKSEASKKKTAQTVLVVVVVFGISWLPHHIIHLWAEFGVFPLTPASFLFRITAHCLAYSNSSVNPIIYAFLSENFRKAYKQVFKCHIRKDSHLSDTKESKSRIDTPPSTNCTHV
Description: The CAMP dynamic 2 kit (Cisbio International) was used as a competitive immunoassay to measure Homogenous Time-Resolved Fluorescence (HTRF). […] Addition of detection reagent involved adding 5 μl d2 conjugated CAMP followed by 5 μl anti-CAMP cryptate conjugate. The two reagents were not pre-mixed; these were both prepared in cell lysis buffer and incubated at room temperature in the dark for one hour.

GalR1 [2] = molecular target: T2, GalR1; assay: β-arrestin recruitment, PathHunter CHO-K1 GALR1 cells; assay type: cell-based; conditions: for Emax: CHO-K1, 1.5 h, read-out: GalR1 Beta Arrestin IA (%)
Description: (§2) Ligands were prepared at half log dilutions using cell plating reagent 2. 5 μl of each ligand was added to cells and plates incubated at 37° C. for 90 minutes. DiscoverX PathHunter detection kit (DiscoverX, USA) was added to cells as described my manufacturer's guidelines and plates incubated for 60 minutes at room temperature in the dark. Chemiluminescent signal was measured using the PHERAstar FS (BMG, Germany).

GALR2 [3] = molecular target: T3, GALR2 (Homo sapiens, UniProt O43603); assay: Calcium assay, CHO GalR2 cells (FLIPR); conditions: for GalR2 Calcium, mean pEC50: Table 2, n ≥ 3; for GalR2 Calcium, mean pEC50 / GalR2 activity (calcium assay), linker variants / GalR2 activity (calcium assay), warhead length: mean +/− standard deviation; for GalR2 activity (calcium assay), linker variants: Table 7; for GalR2 activity (calcium assay), linker variants / GalR2 activity (calcium assay), warhead length: highest concentration tested 10 μM; for GalR2 activity (calcium assay), warhead length: Table 6
T3 sequence (O43603 1-387): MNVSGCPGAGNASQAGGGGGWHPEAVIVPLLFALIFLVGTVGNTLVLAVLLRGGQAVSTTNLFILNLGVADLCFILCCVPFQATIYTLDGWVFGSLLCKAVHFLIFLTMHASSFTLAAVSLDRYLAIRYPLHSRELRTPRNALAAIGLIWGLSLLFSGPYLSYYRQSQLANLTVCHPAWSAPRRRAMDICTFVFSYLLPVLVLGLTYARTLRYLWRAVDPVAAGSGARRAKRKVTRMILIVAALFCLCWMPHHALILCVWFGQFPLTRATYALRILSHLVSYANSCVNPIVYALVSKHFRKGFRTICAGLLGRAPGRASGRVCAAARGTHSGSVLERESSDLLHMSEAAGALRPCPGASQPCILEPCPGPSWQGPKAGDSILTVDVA
Description: CHO GalR2 cells were plated at 10,000 cells per well in black clear bottom plates (corning, USA) and incubated overnight at 37° C. with 5% CO2. […] Ligands were prepared at a 5× concentration and added to cells using the FLIPR (Molecular Devices, USA). Baseline was typically 20 seconds before ligand addition. […] For analysis, fluorescence was normalised to pre-addition baseline and peak fluorescence used for all quantification.
In brief, a panel of functional cell-based microtiter-plate assays were developed using recombinant GalR1 and GalR2 receptors stably expressed in CHO cells. […] Nominally this equated to 10 serial (~3fold) dilutions with highest concentrations of 10-1 μM as appropriate.
In addition to generating both potency and efficacy estimates, the latter being expressed relative to native galanin, both G-protein and non-G-Protein signalling pathways were measured.

GALR2 [4] = molecular target: T3, GALR2; assay: β-arrestin recruitment, PathHunter CHO-K1 GALR2 cells; assay type: cell-based; conditions: for GalR2 Beta Arrestin, mean pEC50: Table 2, mean +/− standard deviation, n ≥ 3
Description: as §2

[5] = Table 3, mean +/− standard deviation, n ≥ 3, highest concentration 1 μM (galnon 100 μM)
[6] = maximum response at highest concentration tested (1 μM, except galnon at 100 μM), relative to galanin

## CC(C)C[C@H](NC(=O)CNC(=O)[C@H](CC(N)=O)NC(=O)[C@H](CCCCN)NC(=O)[C@H](CC(=O)O)NC(=O)[C@H](CO)NC(=O)[C@H](Cc1ccccc1)NC(=O)[C@H](CO)NC(=O)[C@H](CCCNC(=N)N)NC(=O)[C@H](Cc1c[nH]cn1)NC(=O)[C@H](CC(N)=O)NC(=O)CNC(=O)[C@@H](NC(=O)[C@H](C)NC(=O)[C@H](Cc1c[nH]cn1)NC(=O)[C@@H]1CCCN1C(=O)CNC(=O)[C@H](CC(C)C)NC(=O)[C@H](CC(C)C)NC(=O)[C@H](Cc1ccc(O)cc1)NC(=O)CNC(=O)[C@H](C)NC(=O)[C@H](CO)NC(=O)[C@H](CC(N)=O)NC(=O)[C@H](CC(C)C)NC(=O)[C@@H](NC(=O)[C@H](Cc1c[nH]c2ccccc12)NC(=O)CN)[C@@H](C)O)C(C)C)C(=O)N[C@H](C(=O)N[C@@H](CO)C(=O)O)[C@@H](C)O [Galanin 1-30 (human), reference compound]
Mouse GalR2
  EC50: 0.001 µM
Cynomolgus GalR2
  Cynomolgus GalR2 activity: 9.6 +/− 0.2

## CC[C@H](C)[C@H](NC(=O)[C@H](C)NC(=O)[C@H](Cc1c[nH]cn1)NC(=O)[C@@H]1CCCN1C(=O)CNC(=O)[C@H](CC(C)C)NC(=O)[C@H](CC(C)C)NC(=O)[C@H](Cc1ccc(O)cc1)NC(=O)CNC(=O)[C@H](C)NC(=O)[C@H](CO)NC(=O)[C@H](CC(N)=O)NC(=O)[C@H](CC(C)C)NC(=O)[C@@H](NC(=O)[C@@H](N)Cc1c[nH]c2ccccc12)[C@@H](C)O)C(=O)N[C@@H](CC(=O)O)C(=O)N[C@@H](CC(N)=O)C(=O)N[C@@H](Cc1c[nH]cn1)C(=O)N[C@@H](CCCNC(=N)N)C(=O)N[C@@H](CO)C(=O)N[C@@H](Cc1ccccc1)C(=O)N[C@@H](Cc1c[nH]cn1)C(=O)N[C@@H](CC(=O)O)C(=O)N[C@@H](CCCCN)C(=O)N[C@@H](Cc1ccc(O)cc1)C(=O)NCC(=O)N[C@@H](CC(C)C)C(=O)N[C@@H](C)C(N)=O [Galanin 2-29 (rat), reference compound]
GalR1 [1]
  Emax: 90.8%
GalR1 [2]
  Emax: 67.2%

## Cc1cc(=O)oc2cc(NC(=O)[C@H](CCCCN)NC(=O)[C@H](CC3CCCCC3)NC(=O)OCC3c4ccccc4-c4ccccc43)ccc12 [Galnon, reference compound] (Fmoc-[Cha]-Lys-{AMC})
GalR1 [1]
  EC50: > 1 µM
  Emax: 2.9%
GALR2 [3]
  EC50: 20 µM
GALR2 [4]
  EC50: 158 µM
GalR1 [2]
  EC50: > 1 µM
  Emax: 40.1%

## GWTLNSAGYLLGPQPPGFSPFR-NH2 (C-terminus assumed) [M617, reference compound]
GalR1 [1]
  Emax: 90.1%
GalR1 [2]
  Emax: 99%

## Gal1-30FC: galanin 1-30 fused to human IgG1 FC, mature chimeric protein SEQ ID NO: 23
GalR1 [1]; [5]
  GalR1 cAMP pEC50: 8.4 +/− 0.2
GalR1 [1]; [6]
  GalR1 cAMP IA (%): 93.4 +/− 11.6%
GALR2 [3]
  GalR2 Calcium, mean pEC50: 6.4 +/− 0.3
GALR2 [4]
  GalR2 Beta Arrestin, mean pEC50: 5.7 +/− 0.4
GalR1 [2]; [5]
  GalR1 Beta Arrestin pEC50: 5.72 +/− 0.40
GalR1 [2]; [6]
  GalR1 Beta Arrestin IA (%): 88.1 +/− 7.1%

## Gal2-13FC (ALA-12): Gal2-13FC with alanine at position 12; SEQ ID NO: 61
GALR2 [4]; positions 12 and 13 study, FIG. 2 / Table 4
  activation of GalR2 in vitro (in words): failed to activate GalR2

## Gal2-13FC GGS2: Gal2-13 FC fusion with GGSGGS linker; SEQ ID NO: 34
GalR1 [1]; mean +/− standard deviation
  GalR1 activity (cAMP assay), linker variants: 5.5 +/− 0.2
GALR2 [3]
  GalR2 activity (calcium assay), linker variants: 6.4 +/− 0.0

## Gal2-13FC GGS: Gal2-13 FC fusion with GGS linker; SEQ ID NO: 33
GalR1 [1]; mean +/− standard deviation
  GalR1 activity (cAMP assay), linker variants: 5.3 +/− 0.1
GALR2 [3]
  GalR2 activity (calcium assay), linker variants: 6.4 +/− 0.1

## Gal2-13FC NL: Gal2-13 FC fusion with no linker; SEQ ID NO: 36
GalR1 [1]; mean +/− standard deviation
  GalR1 activity (cAMP assay), linker variants: 5.9 +/− 0.2
GALR2 [3]
  GalR2 activity (calcium assay), linker variants: 7.3 +/− 0.1

## Gal2-13FC PA4: Gal2-13 FC fusion with PAPAPAPA linker; SEQ ID NO: 37
GalR1 [1]; mean +/− standard deviation
  GalR1 activity (cAMP assay), linker variants: 6.1 +/− 0.0
GALR2 [3]
  GalR2 activity (calcium assay), linker variants: 6.8 +/− 0.1

## Gal2-18FC: galanin 2-18, AEAAAKEAAAKA linker, human IgG1 FC; SEQ ID NO: 26
GALR2 [3]
  GalR2 Calcium, mean pEC50: 6.7 +/− 0.1
  GalR2 activity (calcium assay), warhead length: 6.7 +/− 0.1
GALR2 [4]
  GalR2 Beta Arrestin, mean pEC50: 7.3 +/− 0.1

## Gal2-24FC: galanin 2-24, AEAAAKEAAAKA linker, human IgG1 FC; SEQ ID NO: 27
GALR2 [3]
  GalR2 Calcium, mean pEC50: 6.9 +/− 0.3
  GalR2 activity (calcium assay), warhead length: 6.9 +/− 0.3
GALR2 [4]
  GalR2 Beta Arrestin, mean pEC50: 7.6 +/− 0.0

## RGRGNWTLNSAGYLLGPVLPPPALALA-NH2 (C-terminus assumed) [M1145, reference compound]
GalR1 [1]
  Emax: 86.7%
GalR1 [2]
  Emax: 24.5%
